From the supplement of paper PMC10567573

B1: PDLIM7 (parent)
chain: AAGGVPGGGSNNGKTPVCHQCHKV
B2: ANKRD40 (parent)
chain: SLRENDFIEIELDRQELTYQELLR

Variants of: B1
Assay: protein stability index of a GFP-peptide fusion (GPS, HEK-293T) (PSI 1-6); higher = more stable
Conditions: c terminus: a fixed tail appended
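Also: lentivirally expressed fusions sorted by FACS into six bins by GFP to DsRed ratio, PSI derived from sequencing read proportions per bin multiplied by bin number.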

For P6Q, which protein stability index is on record?
Its protein stability index is 3.42.

With P6F as the variant, how does the protein stability index read?
Its protein stability index is 2.85.

For P6L, which protein stability index is on record?
Its protein stability index is 3.23.

For P6W, which protein stability index is on record?
The protein stability index was 1.96.

Which protein stability index does the source give for P6G here?
Its protein stability index is 2.19.

Which protein stability index does the source give for P6K here?
The protein stability index was 4.05.

Which protein stability index does the source give for P6C here?
The protein stability index was 3.05.

For P6I, which protein stability index is on record?
The protein stability index was 2.57.

Which protein stability index does the source give for P6R here?
The protein stability index was 3.73.

Which protein stability index does the source give for P6M here?
Its protein stability index is 4.35.

With P6V as the variant, how does the protein stability index read?
The protein stability index was 3.04.

Which protein stability index does the source give for P6Y here?
The protein stability index was 3.73.

With P6N as the variant, how does the protein stability index read?
The protein stability index was 3.46.

Which protein stability index does the source give for P6E here?
The protein stability index was 4.88.

With A2Q as the variant, how does the protein stability index read?
The protein stability index was 4.19.

With A2I as the variant, how does the protein stability index read?
The protein stability index was 3.49.

Which protein stability index does the source give for A2S here?
The protein stability index was 3.84.

Which protein stability index does the source give for A2Y here?
Its protein stability index is 3.72.

Which protein stability index does the source give for A2V here?
The protein stability index was 3.97.

With A2E as the variant, how does the protein stability index read?
The protein stability index was 4.76.

With A2P as the variant, how does the protein stability index read?
The protein stability index was 2.15.

Which protein stability index does the source give for A2W here?
The protein stability index was 3.88.

For A2M, which protein stability index is on record?
Its protein stability index is 3.78.

For A2F, which protein stability index is on record?
Its protein stability index is 3.86.

With A2C as the variant, how does the protein stability index read?
The protein stability index was 2.73.

With A2N as the variant, how does the protein stability index read?
Its protein stability index is 4.08.

With A2R as the variant, how does the protein stability index read?
The protein stability index was 3.33.

For A2G, which protein stability index is on record?
The protein stability index was 3.43.

Which protein stability index does the source give for A2L here?
The protein stability index was 3.53.

Which protein stability index does the source give for A2H here?
The protein stability index was 3.63.

Which protein stability index does the source give for A2D here?
Its protein stability index is 3.81.

With A2T as the variant, how does the protein stability index read?
The protein stability index was 3.08.

With A2K as the variant, how does the protein stability index read?
The protein stability index was 4.11.

For A1M, which protein stability index is on record?
The protein stability index was 3.5.

With A1W as the variant, how does the protein stability index read?
Its protein stability index is 3.22.

Which protein stability index does the source give for A1S here?
The protein stability index was 2.44.

Which protein stability index does the source give for A1F here?
The protein stability index was 2.45.

For A1C, which protein stability index is on record?
The protein stability index was 3.35.

For A1K, which protein stability index is on record?
The protein stability index was 3.36.

For A1V, which protein stability index is on record?
The protein stability index was 3.93.

Which protein stability index does the source give for A1Y here?
Its protein stability index is 1.95.

Which protein stability index does the source give for A1N here?
Its protein stability index is 3.03.

With A1G as the variant, how does the protein stability index read?
Its protein stability index is 3.52.

For A1R, which protein stability index is on record?
Its protein stability index is 2.36.

Which protein stability index does the source give for A1D here?
The protein stability index was 4.34.

For A1P, which protein stability index is on record?
The protein stability index was 3.33.

With A1E as the variant, how does the protein stability index read?
Its protein stability index is 4.24.

Which protein stability index does the source give for A1T here?
Its protein stability index is 2.73.

For A1L, which protein stability index is on record?
The protein stability index was 3.76.

For A1H, which protein stability index is on record?
The protein stability index was 4.13.

For A1I, which protein stability index is on record?
The protein stability index was 3.52.

Which protein stability index does the source give for G3D here?
The protein stability index was 4.08.

With G3I as the variant, how does the protein stability index read?
Its protein stability index is 2.02.

For G3H, which protein stability index is on record?
Its protein stability index is 4.17.

For G3N, which protein stability index is on record?
The protein stability index was 3.14.

For G3T, which protein stability index is on record?
Its protein stability index is 3.3.

Which protein stability index does the source give for G3K here?
The protein stability index was 3.87.

With G3C as the variant, how does the protein stability index read?
Its protein stability index is 3.41.

With G3F as the variant, how does the protein stability index read?
Its protein stability index is 3.31.

Which protein stability index does the source give for G3S here?
Its protein stability index is 3.42.

With G3Y as the variant, how does the protein stability index read?
Its protein stability index is 3.54.

For G9I, which protein stability index is on record?
Its protein stability index is 3.48.

For G9H, which protein stability index is on record?
Its protein stability index is 3.21.

Which protein stability index does the source give for G9F here?
Its protein stability index is 2.39.

Which protein stability index does the source give for G9C here?
The protein stability index was 2.13.

For G9E, which protein stability index is on record?
The protein stability index was 4.04.

With G9D as the variant, how does the protein stability index read?
The protein stability index was 4.5.

For G8M, which protein stability index is on record?
The protein stability index was 3.46.

For G8C, which protein stability index is on record?
Its protein stability index is 3.12.

For G8I, which protein stability index is on record?
The protein stability index was 3.48.

Which protein stability index does the source give for G8R here?
The protein stability index was 3.31.

Which protein stability index does the source give for G8H here?
The protein stability index was 3.3.

With G8T as the variant, how does the protein stability index read?
The protein stability index was 4.16.

With G8W as the variant, how does the protein stability index read?
Its protein stability index is 3.56.

For G8Y, which protein stability index is on record?
Its protein stability index is 2.96.

Which protein stability index does the source give for G8L here?
The protein stability index was 3.72.

For G8K, which protein stability index is on record?
Its protein stability index is 3.52.

Which protein stability index does the source give for G8P here?
Its protein stability index is 3.8.

Which protein stability index does the source give for G8D here?
Its protein stability index is 4.5.

For G8E, which protein stability index is on record?
The protein stability index was 5.24.

Which protein stability index does the source give for G8N here?
The protein stability index was 3.14.

Which protein stability index does the source give for G8Q here?
The protein stability index was 3.87.

With G8S as the variant, how does the protein stability index read?
Its protein stability index is 2.9.

Which protein stability index does the source give for G8V here?
The protein stability index was 3.53.

For G8F, which protein stability index is on record?
The protein stability index was 2.43.

Which protein stability index does the source give for G8A here?
Its protein stability index is 3.58.

With G7K as the variant, how does the protein stability index read?
The protein stability index was 4.09.

For G7F, which protein stability index is on record?
Its protein stability index is 2.9.

With G7D as the variant, how does the protein stability index read?
Its protein stability index is 4.3.

With G7M as the variant, how does the protein stability index read?
Its protein stability index is 2.06.

With G7P as the variant, how does the protein stability index read?
The protein stability index was 3.4.

With G7I as the variant, how does the protein stability index read?
Its protein stability index is 3.1.

Which protein stability index does the source give for G7N here?
Its protein stability index is 4.05.

For G7V, which protein stability index is on record?
The protein stability index was 3.53.

For G7C, which protein stability index is on record?
Its protein stability index is 3.49.

With G7W as the variant, how does the protein stability index read?
Its protein stability index is 2.26.

For G7Y, which protein stability index is on record?
Its protein stability index is 3.4.

For G7R, which protein stability index is on record?
Its protein stability index is 3.89.

With G7S as the variant, how does the protein stability index read?
Its protein stability index is 3.95.

Which protein stability index does the source give for G7L here?
Its protein stability index is 3.47.

With G7Q as the variant, how does the protein stability index read?
The protein stability index was 3.93.

Which protein stability index does the source give for G7H here?
Its protein stability index is 3.68.

Which protein stability index does the source give for G7T here?
Its protein stability index is 3.56.

For G7E, which protein stability index is on record?
The protein stability index was 4.47.

Variants of: B2
Assay: as above
Conditions: c terminus: a fixed tail appended

For S1P, which protein stability index is on record?
The protein stability index was 3.26.

With Y19H as the variant, how does the protein stability index read?
The protein stability index was 3.71.

Which protein stability index does the source give for Y19P here?
The protein stability index was 4.43.

With Q15H as the variant, how does the protein stability index read?
Its protein stability index is 2.75.

Which protein stability index does the source give for Q15T here?
The protein stability index was 2.91.

For Q15I, which protein stability index is on record?
The protein stability index was 1.89.

With Q15C as the variant, how does the protein stability index read?
The protein stability index was 2.62.

Which protein stability index does the source give for E9I here?
The protein stability index was 1.63.

With E9L as the variant, how does the protein stability index read?
The protein stability index was 2.14.

With R14T as the variant, how does the protein stability index read?
Its protein stability index is 3.01.

For R14S, which protein stability index is on record?
The protein stability index was 3.06.

Which protein stability index does the source give for L12H here?
Its protein stability index is 3.82.

For L12W, which protein stability index is on record?
The protein stability index was 2.8.

For L22Y, which protein stability index is on record?
Its protein stability index is 2.9.

Which protein stability index does the source give for L22H here?
Its protein stability index is 3.42.

With I10T as the variant, how does the protein stability index read?
The protein stability index was 4.06.

Which protein stability index does the source give for I10S here?
The protein stability index was 3.68.

With E4T as the variant, how does the protein stability index read?
The protein stability index was 2.7.

For E4A, which protein stability index is on record?
Its protein stability index is 2.74.

Which protein stability index does the source give for D13S here?
The protein stability index was 2.54.

Which protein stability index does the source give for L17D here?
The protein stability index was 3.71.

For L17C, which protein stability index is on record?
Its protein stability index is 3.12.

Which protein stability index does the source give for L17M here?
The protein stability index was 2.92.

Which protein stability index does the source give for E11Y here?
The protein stability index was 2.16.

For E11L, which protein stability index is on record?
Its protein stability index is 1.94.

With E11T as the variant, how does the protein stability index read?
The protein stability index was 2.35.

Which protein stability index does the source give for T18F here?
The protein stability index was 1.85.

Which protein stability index does the source give for T18P here?
The protein stability index was 3.28.

For T18M, which protein stability index is on record?
Its protein stability index is 2.12.

For R3K, which protein stability index is on record?
The protein stability index was 3.23.

For L23W, which protein stability index is on record?
Its protein stability index is 2.04.

With L23G as the variant, how does the protein stability index read?
Its protein stability index is 3.48.

For L23E, which protein stability index is on record?
Its protein stability index is 3.99.

Which protein stability index does the source give for L23I here?
The protein stability index was 2.76.

Which protein stability index does the source give for L23R here?
The protein stability index was 3.75.

Which protein stability index does the source give for L23H here?
The protein stability index was 3.6.

For L23S, which protein stability index is on record?
The protein stability index was 4.

With E16A as the variant, how does the protein stability index read?
The protein stability index was 2.8.

With E16S as the variant, how does the protein stability index read?
Its protein stability index is 3.48.

With E16N as the variant, how does the protein stability index read?
Its protein stability index is 3.5.

With Q20E as the variant, how does the protein stability index read?
Its protein stability index is 3.58.

Which protein stability index does the source give for D6S here?
Its protein stability index is 2.55.

With D6E as the variant, how does the protein stability index read?
The protein stability index was 2.97.

With D6L as the variant, how does the protein stability index read?
Its protein stability index is 2.15.

Which protein stability index does the source give for N5P here?
Its protein stability index is 3.34.

Which protein stability index does the source give for N5D here?
The protein stability index was 2.82.

Which protein stability index does the source give for N5R here?
The protein stability index was 2.79.

Which protein stability index does the source give for I8A here?
Its protein stability index is 3.83.

Which protein stability index does the source give for I8R here?
The protein stability index was 3.89.

With I8E as the variant, how does the protein stability index read?
Its protein stability index is 4.46.

With I8L as the variant, how does the protein stability index read?
The protein stability index was 3.77.

With I8S as the variant, how does the protein stability index read?
Its protein stability index is 3.34.

With I8D as the variant, how does the protein stability index read?
Its protein stability index is 4.56.

For L2C, which protein stability index is on record?
Its protein stability index is 2.99.

For L2M, which protein stability index is on record?
The protein stability index was 3.09.

For L2F, which protein stability index is on record?
Its protein stability index is 2.36.

Which protein stability index does the source give for F7S here?
The protein stability index was 4.03.

With F7P as the variant, how does the protein stability index read?
Its protein stability index is 4.05.

Which protein stability index does the source give for R24A here?
The protein stability index was 3.23.

Which protein stability index does the source give for R24G here?
Its protein stability index is 3.27.

Which protein stability index does the source give for R24S here?
Its protein stability index is 2.92.

With R24F as the variant, how does the protein stability index read?
Its protein stability index is 2.64.

For R24C, which protein stability index is on record?
The protein stability index was 2.72.
